Eight molecules from article PMC6852375 (The Febs Journal, 2019) can be followed below.

A word on the Kd: it is the concentration at which binding is half-saturated. A low value points to higher affinity. Broadly, the koff is the rate constant with which the complex falls apart. What is called kon is a measure of how fast the partners come together.

In experiment [1] the target is T1, Murine OPG-Fc (mouse, UniProt O08712 22-401).
T1 sequence (looked up): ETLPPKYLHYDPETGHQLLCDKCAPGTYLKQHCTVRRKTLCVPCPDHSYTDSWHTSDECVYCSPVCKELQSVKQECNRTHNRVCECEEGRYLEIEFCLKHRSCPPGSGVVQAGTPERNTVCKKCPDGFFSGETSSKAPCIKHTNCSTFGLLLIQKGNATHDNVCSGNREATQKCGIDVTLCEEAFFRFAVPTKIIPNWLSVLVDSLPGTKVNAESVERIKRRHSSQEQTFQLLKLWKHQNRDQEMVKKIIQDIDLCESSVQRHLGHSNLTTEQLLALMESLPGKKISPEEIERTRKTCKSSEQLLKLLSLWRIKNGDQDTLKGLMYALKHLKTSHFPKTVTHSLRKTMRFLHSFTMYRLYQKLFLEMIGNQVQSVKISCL
Put plainly: SPR.

Experiment [2] has as its target T2, Murine RANK-Fc (mouse, UniProt O35305 31-214).
T2 sequence (looked up): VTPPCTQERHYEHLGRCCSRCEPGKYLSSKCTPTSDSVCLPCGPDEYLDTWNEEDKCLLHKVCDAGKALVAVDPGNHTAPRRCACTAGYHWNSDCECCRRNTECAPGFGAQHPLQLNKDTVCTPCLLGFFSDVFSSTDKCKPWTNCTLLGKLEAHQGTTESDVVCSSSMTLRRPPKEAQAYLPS
In words: SPR. (In SPR one partner is held on a chip, and binding of the other changes the refractive index at the surface.)

For experiment [3], the target named is T1, Murine OPG-Fc. Put plainly: ELISA.

Substitutions are numbered along the chain they refer to.

B1: RANKL_WT (mouse soluble RANKL, aa 160–316) (ligand, UniProt O35235 160-316, looked up)
chain: EAQPFAHLTINAASIPSGSHKVTLSSWYHDRGWAKISNMTLSNGKLRVNQDGFYYLYANICFRHHETSGSVPTDYLQLMVYVVKTSIKIPSSHNLMKGGSTKNWSGNSEFHFYSINVGGFFKLRAGEEISIQVSNPSLLDPDQDATYFGAFKVQDID
On to B1, for which, in experiment [1], the dissociation constant (Kd) amounted to 0.0043 ± 0.0016 nM, the koff is 7e-05 s⁻¹ and the kon turned out to be 1.8e+07 M⁻¹ s⁻¹. In experiment [2], this molecule showed a Kd of 0.0119 ± 0.0015 nM, a koff of 0.0001 s⁻¹ and a kon of 8.4e+06 M⁻¹ s⁻¹.

B2: RANKL_Q236P (ligand, mouse, UniProt O35235 160-316, looked up)
chain: B1 chain with Q77P
In experiment [1], B2 had a Kd of 0.0213 ± 0.0082 nM, a koff of 0.00022 s⁻¹ and a kon of 1.1e+07 M⁻¹ s⁻¹. In experiment [2], this molecule displayed a Kd of 0.0198 ± 0.006 nM, a dissociation rate constant (koff) of 0.00012 s⁻¹ and an on-rate constant (kon) of 6.1e+06 M⁻¹ s⁻¹.

B3: RANKL_Q236K (ligand, mouse, UniProt O35235 160-316, looked up)
chain: B1 chain with Q77K
With B3, in experiment [1], the affinity, expressed as Kd, was 0.143 ± 0.0446 nM; the koff came out at 0.00146 s⁻¹; the on-rate constant (kon) was determined as 1.1e+07 M⁻¹ s⁻¹. In experiment [2], this molecule displayed a Kd of 0.119 ± 0.0105 nM, a koff of 0.00095 s⁻¹ and a kon of 8e+06 M⁻¹ s⁻¹.

B4: RANKL_Q236N (ligand, mouse, UniProt O35235 160-316, looked up)
chain: B1 chain with Q77N
In experiment [1], B4 had a Kd of 0.0207 ± 0.0037 nM, a koff of 0.00031 s⁻¹ and an on-rate (kon) of 1.5e+07 M⁻¹ s⁻¹. In experiment [2], this molecule came in with a Kd of 0.0221 ± 0.0029 nM, a koff of 0.00017 s⁻¹ and a kon of 7.9e+06 M⁻¹ s⁻¹.

B5: RANKL_Q236A (ligand, mouse, UniProt O35235 160-316, looked up)
chain: B1 chain with Q77A
As for B5, in experiment [1], the Kd came to 0.0205 ± 0.0022 nM, the off-rate (koff) stood at 0.00033 s⁻¹ and the kon turned out to be 1.6e+07 M⁻¹ s⁻¹. In experiment [2], this molecule showed a dissociation constant Kd of 0.0215 ± 0.0066 nM, a koff of 0.00018 s⁻¹ and a kon of 8.9e+06 M⁻¹ s⁻¹.

B6: RANKL_Q236H (ligand, mouse, UniProt O35235 160-316, looked up)
chain: B1 chain with Q77H
As to B6, in experiment [1], binding was put at a Kd of 0.0166 ± 0.0016 nM, the off-rate (koff) turned out to be 0.00022 s⁻¹ and the kon turned out to be 1.3e+07 M⁻¹ s⁻¹. In experiment [2], this molecule registered a Kd of 0.0187 ± 0.0028 nM, a koff of 0.00013 s⁻¹ and an on-rate constant (kon) of 6.7e+06 M⁻¹ s⁻¹.

B7: RANKL_Q236S (ligand, mouse, UniProt O35235 160-316, looked up)
chain: B1 chain with Q77S
As for B7, in experiment [1], the dissociation constant (Kd) was determined as 0.0233 ± 0.0045 nM, the koff amounted to 0.00031 s⁻¹ and the kon was 1.4e+07 M⁻¹ s⁻¹. In experiment [2], this molecule yielded a Kd of 0.0249 ± 0.0051 nM, a koff of 0.00018 s⁻¹ and an association rate constant (kon) of 7e+06 M⁻¹ s⁻¹.

B8: RANKL_Q236D (ligand, mouse, UniProt O35235 160-316, looked up)
chain: B1 chain with Q77D
B8: in experiment [1], the affinity, expressed as Kd, was 0.112 ± 0.0244 nM; the koff was 0.0007 s⁻¹; the kon amounted to 6e+06 M⁻¹ s⁻¹. Besides, in experiment [2], binding was characterised by a dissociation constant (Kd) of 0.015 ± 0.0032 nM, the koff came out at 9e-05 s⁻¹ and the kon was found to be 6.4e+06 M⁻¹ s⁻¹. Moreover, the “binding relative to RANKL_WT” value in experiment [3] came out at 25%.
